In IntAct's records for PubMed 24034254:

B1: Proto-oncogene tyrosine-protein kinase LCK (Mus musculus), P06240 (parent)
chain: MGCVCSSNPEDDWMENIDVCENCHYPIVPLDSKISLPIRNGSEVRDPLVTYEGSLPPASPLQDNLVIALHSYEPSHDGDLGFEKGEQLRILEQSGEWWKAQSLTTGQEGFIPFNFVAKANSLEPEPWFFKNLSRKDAERQLLAPGNTHGSFLIRESESTAGSFSLSVRDFDQNQGEVVKHYKIRNLDNGGFYISPRITFPGLHDLVRHYTNASDGLCTKLSRPCQTQKPQKPWWEDEWEVPRETLKLVERLGAGQFGEVWMGYYNGHTKVAVKSLKQGSMSPDAFLAEANLMKQLQHPRLVRLYAVVTQEPIYIITEYMENGSLVDFLKTPSGIKLNVNKLLDMAAQIAEGMAFIEEQNYIHRDLRAANILVSDTLSCKIADFGLARLIEDNEYTAREGAKFPIKWTAPEAINYGTFTIKSDVWSFGILLTEIVTHGRIPYPGMTNPEVIQNLERGYRMVRPDNCPEELYHLMMLCWKERPEDRPTFDYLRSVLDDFFTATEGQYQPQP

Variants of: B1
Conditions: with cd4_mouse Cd4, P06332
Chain of cd4_mouse Cd4, P06332 (P06332 whole entry): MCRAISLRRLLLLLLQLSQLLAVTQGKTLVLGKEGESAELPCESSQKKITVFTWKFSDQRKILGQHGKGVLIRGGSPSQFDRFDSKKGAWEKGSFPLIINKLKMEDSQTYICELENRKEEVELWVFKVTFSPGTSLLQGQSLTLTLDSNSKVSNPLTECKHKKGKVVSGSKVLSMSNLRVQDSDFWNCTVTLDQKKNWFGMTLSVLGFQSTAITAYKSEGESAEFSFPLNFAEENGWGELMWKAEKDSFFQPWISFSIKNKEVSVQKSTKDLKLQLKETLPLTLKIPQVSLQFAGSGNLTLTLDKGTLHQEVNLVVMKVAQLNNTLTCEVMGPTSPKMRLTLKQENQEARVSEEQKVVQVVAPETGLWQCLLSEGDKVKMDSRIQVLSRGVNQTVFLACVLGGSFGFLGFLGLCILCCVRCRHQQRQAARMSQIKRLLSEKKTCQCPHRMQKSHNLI

Row | Variant | effect of a mutation on the interaction
1 | C20A;C23A | disrupting interaction strength

Variants of: B1
Conditions: with cd8a_mouse Cd8a

Row | Variant | effect of a mutation on the interaction
2 | C20A;C23A | disrupting interaction strength
